In patent US20250019439A1 (Adimab, published 2025) one finds binding result and Kd data, which are given here for two molecules.

Test [1] concerns the target T1, ADI-70326.
T1 construct: anti-CD3 antibody made in CHO cells, captured by anti-human Fc
Nature of the test: SPR Carterra, CHO anti-ID. On the procedure: (§1) Kinetic analysis was conducted at 25° C. in an HBSTE running buffer system (Carterra Cat #3630) using a Carterra LSA (Carterra USA, Salt Lake City, UT). The sample compartment was maintained at 20° C. for the duration of each experiment.
(§2) For antibody capture experiments, a goat anti-human Fc antibody (Jackson ImmunoResearch) was covalently coupled to an HC30M sensor chip surface via standard amine coupling (1:1 EDC:NHS) and then blocked with ethanolamine (1.0 M, pH 8.5). Covalent coupling steps were performed in 25 mM MES buffer (Carterra, Cat #3625) plus 0.05% Tween20. The anti-CD3 antibodies (100 nM in running buffer) were flowed over discrete regions of interest on the chip surface for 5 minutes. […] Dissociation of the anti-idiotype antibodies was monitored for 300s. Several blank buffer samples were injected over the entire chip surface at the start of each non-regenerative kinetic cycle. The preceding blank buffer injection was used for blank surface subtraction. At the end of each non-regenerative kinetic cycle, all surfaces were regenerated via two 30s injections of 10 mM glycine, pH 1.7.
(§3) In Tables 10A-10C, anti-CD3 antibodies are listed by ADI number or CTL number in the first column. […] CTL-62223 is mosunetuzumab, CTL-62227 is odronextamab, CTL-62228 is glofitamab, and CTL-62240 is ONO-4685. […] “W.B.” means weak binding under the conditions of this assay and thus a KD was unable to be assigned. “N.B.” means no binding under the conditions of this assay.

The next test deals with T2, ADI-26924.
T2 construct: anti-CD3 antibody made in CHO cells, captured by anti-human Fc
T2 sequence (VH, as listed by the source, chain 1 of 2): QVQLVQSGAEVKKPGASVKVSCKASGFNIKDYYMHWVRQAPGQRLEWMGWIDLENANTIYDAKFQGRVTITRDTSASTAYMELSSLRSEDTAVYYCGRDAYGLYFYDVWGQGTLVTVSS
T2 sequence (VL, as listed by the source, chain 2 of 2): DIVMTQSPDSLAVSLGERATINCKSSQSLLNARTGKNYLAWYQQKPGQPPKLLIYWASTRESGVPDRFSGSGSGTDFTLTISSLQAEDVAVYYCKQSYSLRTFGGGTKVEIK
The test is described as follows: SPR Carterra avidity, CHO anti-ID. On the procedure:
as §1, §2, §3

For a further test, the target named is T3, ADI-76359.
T3 construct: anti-CD3 antibody made in CHO cells, captured by anti-human Fc
Nature of the test: SPR Carterra avidity, yeast anti-ID. Summed up: (§4)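 Goat anti-human Fc was amine-coupled to an HC30M sensor chip, then anti-CD3 antibodies at 100 nM were flowed over discrete spots for 5 min. Anti-idiotype antibodies were run in non-regenerative kinetic cycles at 25° C in HBSTE, with 300s dissociation. Blank-subtracted sensorgrams were fitted 1:1.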

Test [2] concerns the target T4, ADI-26906 IgG.
T4 construct: anti-CD3 IgG
Nature of the test: SPR Carterra avidity, yeast anti-ID. Summed up: as §4

The target of a further test is T5, ADI-67447.
T5 construct: anti-CD3 antibody made in CHO cells, captured by anti-human Fc
T5 sequence (VH, as listed by the source limits assumed, chain 1 of 2): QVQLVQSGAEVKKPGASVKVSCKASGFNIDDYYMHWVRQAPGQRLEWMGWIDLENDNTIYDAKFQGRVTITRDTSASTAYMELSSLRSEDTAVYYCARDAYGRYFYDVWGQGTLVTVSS
T5 sequence (VL, as listed by the source limits assumed, chain 2 of 2): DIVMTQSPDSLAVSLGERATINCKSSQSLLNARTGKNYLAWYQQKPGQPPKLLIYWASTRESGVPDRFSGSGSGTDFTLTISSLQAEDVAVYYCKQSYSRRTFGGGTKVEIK
Nature of the test: SPR Carterra avidity, yeast anti-ID. Summed up:
as §4

In test [3] the target is T6, ADI-26916 IgG.
T6 construct: anti-CD3 IgG
T6 sequence (VH, as listed by the source, chain 1 of 2): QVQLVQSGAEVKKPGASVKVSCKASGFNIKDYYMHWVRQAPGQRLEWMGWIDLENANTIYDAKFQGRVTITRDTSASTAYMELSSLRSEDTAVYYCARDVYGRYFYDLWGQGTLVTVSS
The test is described as follows: SPR Carterra avidity, yeast anti-ID. Summed up: as §4

The next test deals with T7, ADI-74968.
T7 construct: pH-dependent anti-CD3 antibody made in CHO cells
T7 sequence (VH, as listed by the source, chain 1 of 2): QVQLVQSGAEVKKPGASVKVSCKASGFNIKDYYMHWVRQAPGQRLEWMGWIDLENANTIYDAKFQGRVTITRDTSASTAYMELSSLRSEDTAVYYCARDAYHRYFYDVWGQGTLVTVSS
T7 sequence (VL, as listed by the source, chain 2 of 2): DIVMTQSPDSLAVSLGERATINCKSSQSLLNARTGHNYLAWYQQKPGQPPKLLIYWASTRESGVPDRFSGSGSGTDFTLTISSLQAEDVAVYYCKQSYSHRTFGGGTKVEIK
Nature of the test: SPR Carterra avidity, yeast anti-ID. Summed up:
as §4

The next test has as its target T8, ADI-26913 IgG.
T8 construct: anti-CD3 IgG
Nature of the test: BLI; tip ADI-34145 IgG, solution anti-CD3 IgG. Here is the method:
(§5) ForteBio affinity measurements were performed generally as previously described (Estep et al., MAbs. 2013 5(2):270-8). Briefly, ForteBio affinity measurements were performed by loading antibody IgG or Fabs on-line onto AHC sensors. Sensors were equilibrated off-line in assay buffer for 30 minutes and then monitored on-line for 60 seconds for baseline establishment. For avid binding measurement, sensors with loaded antibodies were exposed to IgG or Fab solutions for 3 minutes, afterwards they were transferred to assay buffer for 3 minutes for off-rate measurement. Kinetics data were fit using a 1:1 binding model in the data analysis software provided by ForteBio to obtain equilibrium dissociation constant (KD=koff/kₒₙ) values. In each column, tip-immobilized antibodies are listed first and solution antibodies second.
(§6) In each column, tip-immobilized antibodies are listed first and solution antibodies second.

Test [4] deals with T4, ADI-26906 IgG. Nature of the test: BLI; tip ADI-34145 IgG, solution anti-CD3 IgG. On the procedure: as §5, §6
T4 sequence (VH, as listed by the source limits assumed, chain 1 of 2): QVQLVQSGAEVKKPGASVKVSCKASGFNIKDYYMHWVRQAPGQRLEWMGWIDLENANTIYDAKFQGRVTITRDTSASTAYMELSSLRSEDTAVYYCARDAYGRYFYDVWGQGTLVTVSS
Test [5] concerns the target T6, ADI-26916 IgG. Nature of the test: BLI; tip ADI-34145 IgG, solution anti-CD3 IgG. Here is the method:
as §5, §6

The next test concerns the target T9, ADI-26954 IgG.
T9 construct: anti-CD3 IgG
Nature of the test: BLI; tip ADI-34145 IgG, solution anti-CD3 IgG. Here is the method: as §5, §6

A further test concerns the target T10, ADI-26920 IgG.
T10 construct: anti-CD3 IgG
The test is described as follows: BLI; tip ADI-34145 IgG, solution anti-CD3 IgG. On the procedure: as §5, §6

Another test concerns the target T11, ADI-22523 IgG.
T11 construct: anti-CD3 IgG
The test is described as follows: BLI; tip ADI-34145 IgG, solution anti-CD3 IgG. On the procedure:
as §5, §6

A further test deals with T12, CTL-62228.
T12 construct: also called glofitamab
The test is described as follows: SPR Carterra, CHO anti-ID. On the procedure:
as §1, §2, §3

The target of a further test is T13, CTL-62240.
T13 construct: also called ONO-4685
T13 sequence (VH, as listed by the source, chain 1 of 2): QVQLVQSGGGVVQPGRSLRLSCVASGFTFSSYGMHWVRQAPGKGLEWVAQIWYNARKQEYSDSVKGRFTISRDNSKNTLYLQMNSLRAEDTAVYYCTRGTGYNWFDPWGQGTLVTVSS
T13 sequence (VL, as listed by the source, chain 2 of 2): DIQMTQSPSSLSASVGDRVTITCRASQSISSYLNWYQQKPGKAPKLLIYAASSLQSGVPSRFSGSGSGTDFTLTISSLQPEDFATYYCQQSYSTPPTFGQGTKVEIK
The test is described as follows: SPR Carterra, CHO anti-ID. On the procedure: as §1, §2, §3

Another test addresses T14, CTL-62227.
T14 construct: also called odronextamab
The test is described as follows: SPR Carterra, CHO anti-ID. On the procedure: as §1, §2, §3

For test [6], the target named is T6, ADI-26916 IgG. Nature of the test: SPR Carterra avidity, yeast anti-ID, *koff limit. Summed up:
as §4

Test [7] concerns the target T15, ADI-70327.
T15 construct: anti-CD3 antibody made in CHO cells, captured by anti-human Fc
Nature of the test: SPR Carterra avidity, CHO anti-ID. On the procedure: as §1, §2, §3

For the next test, the target named is T16, ADI-48587.
T16 construct: pH-dependent anti-CD3 antibody made in CHO cells
T16 sequence (VH, as listed by the source, chain 1 of 2): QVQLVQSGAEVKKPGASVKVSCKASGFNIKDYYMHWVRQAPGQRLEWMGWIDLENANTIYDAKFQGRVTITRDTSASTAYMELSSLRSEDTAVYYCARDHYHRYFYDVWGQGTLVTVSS
T16 sequence (VL, as listed by the source, chain 2 of 2): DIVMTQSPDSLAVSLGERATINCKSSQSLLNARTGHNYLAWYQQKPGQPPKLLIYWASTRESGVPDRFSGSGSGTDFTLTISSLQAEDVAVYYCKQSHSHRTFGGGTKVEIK
Nature of the test: SPR Carterra avidity, CHO anti-ID. Here is the method: as §1, §2, §3

For test [8], the target named is T1, ADI-70326. The test is described as follows: SPR Carterra avidity, CHO anti-ID. On the procedure:
as §1, §2, §3

The target of a further test is T17, ADI-26921 IgG.
T17 construct: anti-CD3 IgG
Nature of the test: SPR Carterra avidity, yeast anti-ID. Summed up:
as §4

In a further test the target is T18, ADI-76362.
T18 construct: anti-CD3 antibody made in CHO cells, captured by anti-human Fc
Nature of the test: SPR Carterra avidity, yeast anti-ID. Summed up:
as §4

Test [9] has as its target T15, ADI-70327. Nature of the test: SPR Carterra avidity, yeast anti-ID. Summed up: as §4
The target in the next test is T19, ADI-26912.
T19 construct: anti-CD3 antibody made in CHO cells, captured by anti-human Fc
The test is described as follows: SPR Carterra avidity, yeast anti-ID. Summed up: as §4

The next test deals with T20, ADI-74966.
T20 construct: pH-dependent anti-CD3 antibody made in CHO cells
The test is described as follows: SPR Carterra avidity, yeast anti-ID. Summed up: as §4

For a further test, the target named is T21, CTL-62223.
T21 construct: also called mosunetuzumab
T21 sequence (VH, as listed by the source, chain 1 of 2): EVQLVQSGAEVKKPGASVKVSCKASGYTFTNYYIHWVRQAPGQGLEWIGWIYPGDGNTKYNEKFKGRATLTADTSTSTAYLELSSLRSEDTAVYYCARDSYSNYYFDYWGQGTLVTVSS
T21 sequence (VL, as listed by the source, chain 2 of 2): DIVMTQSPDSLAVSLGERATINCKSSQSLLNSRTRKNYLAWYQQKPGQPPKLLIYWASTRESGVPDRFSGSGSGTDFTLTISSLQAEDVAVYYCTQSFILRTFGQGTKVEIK
The test is described as follows: SPR Carterra avidity, yeast anti-ID. Summed up: as §4

The target in the next test is T22, ADI-67450.
T22 construct: anti-CD3 antibody made in CHO cells, captured by anti-human Fc
T22 sequence (VH, as listed by the source limits assumed, chain 1 of 2): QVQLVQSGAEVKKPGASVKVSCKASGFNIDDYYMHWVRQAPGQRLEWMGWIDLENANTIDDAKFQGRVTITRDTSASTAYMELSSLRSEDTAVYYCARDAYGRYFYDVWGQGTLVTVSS
Nature of the test: SPR Carterra avidity, yeast anti-ID. Summed up:
as §4

Another test deals with T23, ADI-76361.
T23 construct: anti-CD3 antibody made in CHO cells, captured by anti-human Fc
The test is described as follows: SPR Carterra avidity, yeast anti-ID. Summed up:
as §4

Another test deals with T24, ADI-26915.
T24 construct: anti-CD3 antibody made in CHO cells, captured by anti-human Fc
T24 sequence (VH, as listed by the source, chain 1 of 2): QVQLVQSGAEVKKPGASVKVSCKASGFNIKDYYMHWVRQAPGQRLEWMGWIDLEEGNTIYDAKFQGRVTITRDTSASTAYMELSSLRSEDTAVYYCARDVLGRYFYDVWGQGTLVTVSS
Nature of the test: SPR Carterra avidity, yeast anti-ID. Summed up: as §4

In another test the target is T25, ADI-70330.
T25 construct: anti-CD3 antibody made in CHO cells, captured by anti-human Fc
T25 sequence (VH, as listed by the source limits assumed, chain 1 of 2): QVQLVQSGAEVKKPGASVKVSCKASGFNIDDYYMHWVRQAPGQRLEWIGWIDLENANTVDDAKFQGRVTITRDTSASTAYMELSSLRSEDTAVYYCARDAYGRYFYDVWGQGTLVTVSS
T25 sequence (VL, as listed by the source limits assumed, chain 2 of 2): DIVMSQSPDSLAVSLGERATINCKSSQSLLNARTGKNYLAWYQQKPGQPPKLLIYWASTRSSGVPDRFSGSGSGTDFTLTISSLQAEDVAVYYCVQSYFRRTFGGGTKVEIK
Nature of the test: SPR Carterra avidity, yeast anti-ID. Summed up:
as §4

T1 sequence (VH, as listed by the source limits assumed, chain 1 of 2): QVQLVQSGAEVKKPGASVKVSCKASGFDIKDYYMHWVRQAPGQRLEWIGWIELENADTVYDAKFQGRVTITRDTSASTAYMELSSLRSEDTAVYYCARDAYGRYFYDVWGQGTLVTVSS
T15 sequence (VH, as listed by the source limits assumed, chain 1 of 2): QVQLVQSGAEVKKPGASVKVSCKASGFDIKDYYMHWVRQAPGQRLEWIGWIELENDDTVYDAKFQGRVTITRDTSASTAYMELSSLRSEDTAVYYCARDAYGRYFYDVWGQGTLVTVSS
T10 sequence (VH, as listed by the source limits assumed, chain 1 of 2): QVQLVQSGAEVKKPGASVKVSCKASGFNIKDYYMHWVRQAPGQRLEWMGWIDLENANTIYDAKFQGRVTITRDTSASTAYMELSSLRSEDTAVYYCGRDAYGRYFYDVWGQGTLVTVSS
T11 sequence (VH, as listed by the source limits assumed, chain 1 of 2): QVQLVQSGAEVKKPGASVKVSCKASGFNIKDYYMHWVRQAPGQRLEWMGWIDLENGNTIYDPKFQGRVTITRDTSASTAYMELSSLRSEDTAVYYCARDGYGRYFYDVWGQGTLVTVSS
T11 sequence (VL, as listed by the source limits assumed, chain 2 of 2): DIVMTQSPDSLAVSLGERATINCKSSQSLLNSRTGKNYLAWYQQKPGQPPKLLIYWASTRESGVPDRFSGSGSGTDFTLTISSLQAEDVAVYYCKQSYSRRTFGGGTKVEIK
T8 sequence (VH, as listed by the source limits assumed, chain 1 of 2): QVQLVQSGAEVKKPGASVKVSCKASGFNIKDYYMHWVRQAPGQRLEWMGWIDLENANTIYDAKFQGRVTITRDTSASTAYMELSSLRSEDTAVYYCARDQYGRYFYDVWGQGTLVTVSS
T9 sequence (VH, as listed by the source limits assumed, chain 1 of 2): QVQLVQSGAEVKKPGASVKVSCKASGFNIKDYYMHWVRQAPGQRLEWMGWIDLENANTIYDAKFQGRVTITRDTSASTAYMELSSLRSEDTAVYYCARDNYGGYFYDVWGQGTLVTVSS
T9 sequence (VL, as listed by the source limits assumed, chain 2 of 2): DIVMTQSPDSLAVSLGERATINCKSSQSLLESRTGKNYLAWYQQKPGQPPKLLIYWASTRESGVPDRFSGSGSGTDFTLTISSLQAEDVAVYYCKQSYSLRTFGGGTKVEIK

B1: ADI-34145 IgG (antibody, V domains shown)
VH: EVQLLESGGGLVQPGGSLRLSCAASGFTFSSYAMSWVRQAPGKGLEWVSTISGSGGSTYYADSVKGRFTISRDNSKNTLYLQMNSLRAEDTAVYYCARLGGRRGSGSSYYYYYGMDVWGQGTTVTVSS
VL: not shown
notes: anti-ID IgG
B1: the binding result in the test with ADI-70326 [1] is given as “no binding (tested: up to 200 nM)”. The Kd with ADI-26924 stood at 3.5 nM; with ADI-76359, 14 nM; with ADI-26906 IgG [2], 14 nM; in the test with ADI-67447, 27 nM; with ADI-26916 IgG [3], 20 nM; with ADI-74968, 67 nM. The Kd with ADI-26913 IgG was 8.1 nM; with ADI-26906 IgG [4] it was 8.39 nM; with ADI-26916 IgG [5], 48 nM; in the test with ADI-26954 IgG, 7.75 nM; with ADI-26920 IgG it was 14.3 nM; in the test with ADI-22523 IgG, 2.72 nM.

B2: ADI-34134 IgG (antibody, V domains shown)
VH: QVQLVQSGAEVKKPGSSVKVSCKASGGTFSSYAISWVRQAPGQGLEWMGGIIPIFGTANYAQKFQGRVTITADESTSTAYMELSSLRSEDTAVYYCARGAPNYYGSGGYDDGWFDPWGQGTLVTVSS
VL: EIVLTQSPGTLSLSPGERATLSCRASQSVSSDYLAWYQQKPGQAPRLLIYGASSRATGIPDRFSGSGSGTDFTLTISRLEPEDFAVYYCQQFGRVPTFGGGTKVEIK
As for B2, the binding result with CTL-62228, in the test with CTL-62240 and with CTL-62227 was “no binding (tested: up to 200 nM)” each time. Besides, the Kd worked out at 6.3 nM with ADI-26916 IgG [6]; 1.3 nM with ADI-70327 [7]; 1.3 nM in the test with ADI-48587; 1.2 nM in the test with ADI-70326 [8]; 3.6 nM with ADI-26921 IgG; 6.3 nM with ADI-76362. Besides, the Kd is 14 nM with ADI-70327 [9]; 34 nM with ADI-26912; 52 nM in the test with ADI-74966; 18 nM with CTL-62223; 12 nM with ADI-67450; 7.1 nM in the test with ADI-76361. In addition, the Kd in the test with ADI-26915 turned out to be 19 nM; with ADI-70330, 13 nM.
